The values below come from publication PMC5512451.

Some results are limits rather than exact numbers.

The assay concerns the target N90-VRC38.01 IgG (human). The experiment in a line: SPR.

Consider “BG505.DS.T332N.SOSIP.664 gp140 trimer (complex)”, for which the fold stronger binding of the IgG than of the Fab was over 7 fold.
